Results reported in patent US5534410.

Tests used:
[1] = target: Sp1, over-expressed and purified from HeLa cells infected with a vaccinia virus expression vector (Homo sapiens (Human)) (UniProt P08047); assay: 35S-TAF110 (reticulocyte lysate) on DNA-bound Sp1 resin, SDS-PAGE, PhosphorImager
[2] = target: GAL4-Sp1B domain fusion (Homo sapiens (Human)) (UniProt P08047)

Row | fold greater binding to the Sp1-containing resin than to the resin without Sp1 [1] [fold] | transcription of a reporter gene dependent on GAL4 binding sites (CAT), superactivation assay in Drosophila Schneider cells [2] [fold] | Substance
1 | 60 |  | Drosophila TAF110 (dTAFII110), full-length
2 |  | 50 | Sp1(N539), the gln-rich A and B domains of Sp1 (from UniProt P08047)
